Paper PMC4601075, “Specific binding of eukaryotic ORC to DNA replication origins depends on highly conserved basic residues” (Scientific Reports, 2015)
Each block holds one molecule with its values, some of them ahead of it.

Experiments:
[1] = target: ORC-1R367A hexamer R367A (Saccharomyces cerevisiae) (UniProt P54784+P32833+P54790+P54791+P50874+P38826); experiment: EMSA; conditions: 25 mM HEPES-KOH pH 7.6, 100 mM K glutamate, 5 mM Mg acetate, 5 mM CaCl2, 5 mM DTT, 5% glycerol, 0.1% Triton X-100, 2 mg/ml BSA, 1 mM ATP; 1.6 nM dsDNA or 3 nM …
[2] = target: ORC-1K362A hexamer K362A (Saccharomyces cerevisiae) (UniProt P54784+P32833+P54790+P54791+P50874+P38826); experiment: EMSA; conditions: 25 mM HEPES-KOH pH 7.6, 100 mM K glutamate, 5 mM Mg acetate, 5 mM CaCl2, 5 mM DTT, 5% glycerol, 0.1% Triton X-100, 2 mg/ml BSA, 1 mM ATP; 1.6 nM dsDNA or 3 nM …
[3] = test system: GH-Orc1 301-400 (Saccharomyces cerevisiae); experiment: EMSA; conditions: competitor DNA; 25 mM HEPES-KOH pH 7.6, 100 mM K glutamate, 5 mM Mg acetate, 5 mM CaCl2, 5 mM DTT, 5% glycerol, 0.1% Triton X-100, 2 mg/ml BSA, 1 mM ATP; 1.6 nM dsDNA or 3 nM …; scale: fold lower affinity than ORC hexamer
ORC (ScORC, ORC hexamer) [4] = target: T1, ORC (ScORC, ORC hexamer) (Saccharomyces cerevisiae, UniProt P54784+P54791, P54784:K362A); experiment: nitrocellulose filter binding, Scatchard plot
T1 construct: gene ORC1; with Origin recognition complex subunit 2; Origin recognition complex subunit 3; Origin recognition complex subunit 5; Origin recognition complex subunit 6
T1 sequence (P54784 whole entry K362A): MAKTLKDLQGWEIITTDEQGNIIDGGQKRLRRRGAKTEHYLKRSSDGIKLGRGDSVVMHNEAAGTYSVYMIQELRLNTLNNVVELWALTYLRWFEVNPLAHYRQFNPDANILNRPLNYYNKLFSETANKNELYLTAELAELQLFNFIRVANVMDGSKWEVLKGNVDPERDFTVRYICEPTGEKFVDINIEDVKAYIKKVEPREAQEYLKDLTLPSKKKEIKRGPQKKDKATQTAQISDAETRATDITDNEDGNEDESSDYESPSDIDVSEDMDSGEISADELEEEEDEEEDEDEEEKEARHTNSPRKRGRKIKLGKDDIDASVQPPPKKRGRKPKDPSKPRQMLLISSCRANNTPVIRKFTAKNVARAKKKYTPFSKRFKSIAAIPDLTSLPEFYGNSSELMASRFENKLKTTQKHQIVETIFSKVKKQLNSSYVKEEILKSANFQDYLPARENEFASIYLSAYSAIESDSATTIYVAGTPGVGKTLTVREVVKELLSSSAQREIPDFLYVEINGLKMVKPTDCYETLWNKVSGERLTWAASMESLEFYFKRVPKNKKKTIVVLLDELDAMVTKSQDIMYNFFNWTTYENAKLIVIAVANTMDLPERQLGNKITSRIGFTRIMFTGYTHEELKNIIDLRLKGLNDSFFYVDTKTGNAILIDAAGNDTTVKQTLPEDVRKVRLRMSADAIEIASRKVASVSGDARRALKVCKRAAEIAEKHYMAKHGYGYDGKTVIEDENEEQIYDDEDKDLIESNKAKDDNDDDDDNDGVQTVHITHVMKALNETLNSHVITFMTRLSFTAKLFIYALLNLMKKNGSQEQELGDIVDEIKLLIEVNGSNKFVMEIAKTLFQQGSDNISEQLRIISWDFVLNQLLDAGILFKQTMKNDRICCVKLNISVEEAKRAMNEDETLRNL
T1 sequence (P54791 whole entry): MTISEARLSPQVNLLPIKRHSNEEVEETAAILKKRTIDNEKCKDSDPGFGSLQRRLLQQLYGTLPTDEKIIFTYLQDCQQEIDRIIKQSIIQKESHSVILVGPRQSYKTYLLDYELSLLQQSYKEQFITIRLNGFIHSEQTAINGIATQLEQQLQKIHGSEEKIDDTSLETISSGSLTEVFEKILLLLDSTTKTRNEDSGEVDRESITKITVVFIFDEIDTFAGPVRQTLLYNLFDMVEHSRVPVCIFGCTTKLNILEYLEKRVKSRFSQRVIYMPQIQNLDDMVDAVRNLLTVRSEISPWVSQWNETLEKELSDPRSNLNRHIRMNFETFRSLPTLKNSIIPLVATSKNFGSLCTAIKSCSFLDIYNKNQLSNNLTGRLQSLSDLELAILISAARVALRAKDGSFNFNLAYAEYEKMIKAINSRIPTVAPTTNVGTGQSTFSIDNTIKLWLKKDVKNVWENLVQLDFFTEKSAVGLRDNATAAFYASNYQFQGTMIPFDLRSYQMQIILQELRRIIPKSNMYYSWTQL
T1 sequence (P32833 whole entry partner): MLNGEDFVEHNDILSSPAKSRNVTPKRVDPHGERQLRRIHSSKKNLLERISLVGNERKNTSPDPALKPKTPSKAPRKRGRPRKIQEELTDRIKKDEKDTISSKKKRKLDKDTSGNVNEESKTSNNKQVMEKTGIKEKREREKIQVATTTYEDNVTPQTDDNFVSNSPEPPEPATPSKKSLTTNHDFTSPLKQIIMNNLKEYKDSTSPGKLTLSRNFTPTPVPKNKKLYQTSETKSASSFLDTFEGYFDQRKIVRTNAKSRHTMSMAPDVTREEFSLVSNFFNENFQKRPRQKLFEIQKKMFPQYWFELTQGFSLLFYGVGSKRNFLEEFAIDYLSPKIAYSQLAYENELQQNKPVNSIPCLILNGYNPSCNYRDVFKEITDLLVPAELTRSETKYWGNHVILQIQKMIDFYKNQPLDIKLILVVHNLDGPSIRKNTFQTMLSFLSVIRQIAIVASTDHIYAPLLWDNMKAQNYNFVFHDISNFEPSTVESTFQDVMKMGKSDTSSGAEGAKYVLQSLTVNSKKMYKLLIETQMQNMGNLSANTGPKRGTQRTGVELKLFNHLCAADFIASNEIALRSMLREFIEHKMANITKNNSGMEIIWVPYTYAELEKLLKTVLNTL
T1 sequence (P54790 2-616 partner): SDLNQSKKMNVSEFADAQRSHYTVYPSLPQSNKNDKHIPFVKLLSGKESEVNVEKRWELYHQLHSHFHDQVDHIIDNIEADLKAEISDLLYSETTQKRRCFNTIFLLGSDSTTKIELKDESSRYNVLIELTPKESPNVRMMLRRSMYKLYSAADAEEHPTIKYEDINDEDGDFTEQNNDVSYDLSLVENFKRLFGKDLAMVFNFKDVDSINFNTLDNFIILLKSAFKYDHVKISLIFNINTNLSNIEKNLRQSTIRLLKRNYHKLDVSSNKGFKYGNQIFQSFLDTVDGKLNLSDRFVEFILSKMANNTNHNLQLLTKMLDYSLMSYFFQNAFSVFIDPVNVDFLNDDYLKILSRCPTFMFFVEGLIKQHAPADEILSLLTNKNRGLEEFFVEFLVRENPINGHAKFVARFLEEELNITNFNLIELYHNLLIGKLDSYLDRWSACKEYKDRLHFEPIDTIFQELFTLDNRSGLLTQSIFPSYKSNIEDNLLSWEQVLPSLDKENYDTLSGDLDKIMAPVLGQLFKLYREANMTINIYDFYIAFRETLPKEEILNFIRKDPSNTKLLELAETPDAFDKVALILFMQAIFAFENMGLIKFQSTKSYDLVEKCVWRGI
T1 sequence (P50874 whole entry partner): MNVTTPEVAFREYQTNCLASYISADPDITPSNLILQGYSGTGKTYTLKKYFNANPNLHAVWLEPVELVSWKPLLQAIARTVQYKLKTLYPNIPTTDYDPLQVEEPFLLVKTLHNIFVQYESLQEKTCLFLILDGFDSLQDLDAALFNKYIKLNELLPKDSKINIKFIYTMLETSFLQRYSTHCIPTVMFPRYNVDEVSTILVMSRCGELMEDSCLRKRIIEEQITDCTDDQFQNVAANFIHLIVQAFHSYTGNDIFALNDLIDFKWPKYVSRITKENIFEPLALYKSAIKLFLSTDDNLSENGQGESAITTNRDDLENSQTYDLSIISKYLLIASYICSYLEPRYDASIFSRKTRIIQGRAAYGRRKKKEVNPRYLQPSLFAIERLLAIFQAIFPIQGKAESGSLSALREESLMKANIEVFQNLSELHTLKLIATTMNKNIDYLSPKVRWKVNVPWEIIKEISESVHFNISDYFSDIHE
T1 sequence (P38826 whole entry partner): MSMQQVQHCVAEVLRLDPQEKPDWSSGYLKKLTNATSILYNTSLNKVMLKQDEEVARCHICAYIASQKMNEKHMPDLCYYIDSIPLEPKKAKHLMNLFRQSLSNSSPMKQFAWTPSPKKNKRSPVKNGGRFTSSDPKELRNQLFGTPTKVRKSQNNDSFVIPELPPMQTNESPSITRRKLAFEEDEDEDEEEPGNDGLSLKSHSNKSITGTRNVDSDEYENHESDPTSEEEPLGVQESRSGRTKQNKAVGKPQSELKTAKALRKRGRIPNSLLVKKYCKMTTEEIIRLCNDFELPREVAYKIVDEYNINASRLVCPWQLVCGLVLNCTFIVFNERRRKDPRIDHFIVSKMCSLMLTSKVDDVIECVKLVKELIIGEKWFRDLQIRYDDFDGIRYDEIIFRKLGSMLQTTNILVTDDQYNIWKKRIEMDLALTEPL
Source text: (§1) nitrocellulose filter binding, Scatchard plot on ORC (ScORC, ORC hexamer)

ORC (ScORC, ORC hexamer) [5] = target: T2, ORC (ScORC, ORC hexamer) (Saccharomyces cerevisiae, UniProt P54784+P54791); experiment: nitrocellulose filter binding, Scatchard plot
T2 construct: gene ORC1; with Origin recognition complex subunit 2; Origin recognition complex subunit 3; Origin recognition complex subunit 5; Origin recognition complex subunit 6
T2 sequence (P54784 whole entry): as the sequence (P54784 whole entry K362A) above, with A362K counted along it
T2 sequence (P54791 whole entry): as the sequence (P54791 whole entry) above
T2 sequence (P32833 whole entry partner): as the sequence (P32833 whole entry partner) above
T2 sequence (P54790 2-616 partner): as the sequence (P54790 2-616 partner) above
T2 sequence (P50874 whole entry partner): as the sequence (P50874 whole entry partner) above
T2 sequence (P38826 whole entry partner): as the sequence (P38826 whole entry partner) above
Source text: as §1

ORC (ScORC, ORC hexamer) [6] = target: T3, ORC (ScORC, ORC hexamer) (Saccharomyces cerevisiae, UniProt P54784+P54791, P54784:R367A); experiment: nitrocellulose filter binding, Scatchard plot
T3 construct: gene ORC1; with Origin recognition complex subunit 2; Origin recognition complex subunit 3; Origin recognition complex subunit 5; Origin recognition complex subunit 6
T3 sequence (P54784 whole entry R367A): as the sequence (P54784 whole entry K362A) above, with A362K, R367A counted along it
T3 sequence (P54791 whole entry): as the sequence (P54791 whole entry) above
T3 sequence (P32833 whole entry partner): as the sequence (P32833 whole entry partner) above
T3 sequence (P54790 2-616 partner): as the sequence (P54790 2-616 partner) above
T3 sequence (P50874 whole entry partner): as the sequence (P50874 whole entry partner) above
T3 sequence (P38826 whole entry partner): as the sequence (P38826 whole entry partner) above
Source text: as §1

[7] = target: T4, S. cerevisiae origin recognition complex (ORC) hexamer, wild type (S. cerevisiae, UniProt P54784 1-914; P32833 1-620; P54790 1-616; P54791 1-529; P50874 1-479; P38826 …); experiment: native gel or EMSA; ORC and Cdc6 incubated with Cy5-labeled ARS1 DNA (1.6 nM) and 300 ng GC-rich competitor, 10 min at room temperature, 25 mM HEPES-KOH pH 7.6, 100 mM potassium glutamate, 1 mM ATP; Cdc6-dependent supershift of the ORC-ARS1 complex on a 4% polyacrylamide gel; conditions: both partners purified
T4 construct: Orc1, largest subunit of the S. cerevisiae origin recognition complex; expressed from ORC1-TEV-His; Orc2, subunit of the S. cerevisiae origin recognition complex; Orc3, subunit of the S. cerevisiae origin recognition complex; Orc4, subunit of the S. cerevisiae origin recognition complex; Orc5, subunit of the S. cerevisiae origin recognition complex; Orc6, subunit of the S. cerevisiae origin …

[8] = target: ORC hexamer wild-type (Orc1-TEV-His/Orc2/3/4/5/6) (Saccharomyces cerevisiae, UniProt P54784;P32833;P54790;P54791;P50874;P38826 1-914;1-620;1-616;1-529;1-479;1-435); experiment: EMSA; 1 mM ATP, competitor dsDNA; 25 mM HEPES-KOH pH 7.6, 100 mM K glutamate, 5 mM Mg acetate, 5 mM CaCl2, 5 mM DTT, 5% glycerol, 0.1% Triton X-100, 2 mg/ml BSA, 1 mM ATP; 1.6 nM dsDNA or 3 nM ssDNA, 300 ng GC-rich competitor in 5 ul, 10 min, room temperature; conditions: protein: recombinant; tags: TEV-His on Orc1 (C-terminal by name); copies: 1;1;1;1;1;1; label: 3' Cy5-ddUTP (terminal transferase)
ORC-1K362A hexamer = ORC-1K362A hexamer (Saccharomyces cerevisiae, UniProt P54784;P32833;P54790;P54791;P50874;P38826 1-914;1-620;1-616;1-529;1-479;1-435, K362A); experiment: as above; conditions: protein: recombinant; tags: TEV-His on Orc1; copies: 1;1;1;1;1;1; label: 3' Cy5-ddUTP (terminal transferase)
ORC-1R367A hexamer = ORC-1R367A hexamer (Saccharomyces cerevisiae, UniProt P54784;P32833;P54790;P54791;P50874;P38826 1-914;1-620;1-616;1-529;1-479;1-435, R367A); experiment: as above; conditions: protein: recombinant; tags: TEV-His on Orc1; copies: 1;1;1;1;1;1; label: 3' Cy5-ddUTP (terminal transferase)

Molecule: CCCACATGTCAATTTAGTATATTACTGTATATCTAGTTCATTCTTCAAAATAAAGAATGCATAACCATTTTTTTATGTTTTTTCCGGAATTGGCTAAATTCACAAAAAAAAAGAGCATAAAGCGAATTGAATTGTCTCGCCAAGAAAACGCACTGAGAGGACGATTGATCCTCCAGACAAGATCGGAATTTTTACTTTTCTGTTTTTAACGACGTCGG (double strand) [ARS609 fragment]
binding [1]: binds more weakly
binding [2]: binds more weakly

Molecule: CCGACGTCAGATCTTAATTTATCTCATGAAGTAATGATACCTCAGCGATGTGCTCGCTCGTTAGTATGCTTCATAAATTCATTATTATTTTTTTTTGGAAGTGTTTTTCGACAAAAGTTGCATTTTTACGAAGGATATGTAAACTCAAGAAGTACTAAATAAATATAAATACAATTCGAAAATTTGAAAAAAGTAGGAGACAACACTTTCCTTCCTCACGAAGAAGTTAAGCTTACATGTGGG (double strand) [ARS306 fragment]
binding [1]: binds more weakly
binding [2]: binds more weakly

Molecule: ARS1 wild-type fragment
binding signal [3]: > 100

Kd (ORC (ScORC, ORC hexamer) [4]): 35 nM
Kd (ORC (ScORC, ORC hexamer) [5]): 31 nM
Kd (ORC (ScORC, ORC hexamer) [6]): 32 nM
Molecule: Nc1ncnc2c1ncn2[C@@H]1O[C@H](COP(=O)(O)OP(=O)(O)OP(=O)(O)O)[C@@H](O)[C@H]1O [ATP]

binding result [7]: binds
B1: ScCdc6 (natural protein, S. cerevisiae, UniProt P09119 1-513, looked up)
chain: MSAIPITPTKRIRRNLFDDAPATPPRPLKRKKLQFTDVTPESSPEKLQFGSQSIFLRTKALLQKSSELVNLNSSDGALPARTAEYEQVMNFLAKAISEHRSDSLYITGPPGTGKTAQLDMIIRQKFQSLPLSLSTPRSKDVLRHTNPNLQNLSWFELPDGRLESVAVTSINCISLGEPSSIFQKIFDSFQDLNGPTLQIKNMQHLQKFLEPYHKKTTFVVVLDEMDRLLHANTSETQSVRTILELFLLAKLPTVSFVLIGMANSLDMKDRFLSRLNLDRGLLPQTIVFQPYTAEQMYEIVIQKMSSLPTIIFQPMAIKFAAKKCAGNTGDLRKLFDVLRGSIEIYELEKRFLLSPTRGSLNSAQVPLTPTTSPVKKSYPEPQGKIGLNYIAKVFSKFVNNNSTRTRIAKLNIQQKLILCTIIQSLKLNSDATIDESFDHYIKAITKTDTLAPLQRNEFLEICTILETCGLVSIKKTKCKGKTKRFVDKIDVDLDMREFYDEMTKISILKPFLH
notes: Cdc6 of S. cerevisiae; source: E. coli, overexpressed and purified

Molecule: GTTACCATGGCATCGAGTTCTTCAACAAGACTACAATGG (ssDNA) [DL11]
binding result [8]: binds
binding result (ORC-1K362A hexamer): binds
binding result (ORC-1R367A hexamer): binds
